B1: FIXa Y155F/K247N/N249S/R318Y/T343R/E410N (protein)
chain 1: not shown
chain 2: not shown
B2: FIXa K247N/N249S/R318Y/T343R/E410N (protein)
chain 1: not shown
chain 2: not shown
B3: FIXa Y155F/K247N/N249S/R338E/T343R/R403E (protein)
chain 1: not shown
chain 2: not shown
B4: FIXa K247N/N249S/R338E/T343R/R403E (protein)
chain 1: not shown
chain 2: not shown
B5: FIXa Y155F/K247N/N249S/R338E/T343R/E410N (protein)
chain 1: not shown
chain 2: not shown
B6: FIXa K247N/N249S/R338E/T343R/E410N (protein)
chain 1: not shown
chain 2: not shown
B7: FIXa Y155F/K247N/N249S/T343R/R403E/E410N (protein)
chain 1: not shown
chain 2: not shown
B8: FIXa R338E/T343R/E410N (protein)
chain 1: not shown
chain 2: not shown
B9: FIXa-Y155F/N260S/R318Y/R338E/T343R/R403E/E410N (protein)
chain 1: not shown
chain 2: not shown
B10: FIXa-K228N/K247N/N249S/R318Y/R338E/T343R/R403E/E410N (protein)
chain 1: not shown
chain 2: not shown
B11: FIXa-Y155F/K228N/K247N/N249S/R318Y/R338E/T343R/R403E/E410N (protein)
chain 1: not shown
chain 2: not shown
B12: FIXa-Y155F/R338E/T343R/R403E (protein)
chain 1: not shown
chain 2: not shown
B13: FIXa-R338E/T343R/R403E (protein)
chain 1: not shown
chain 2: not shown
B14: FIXa-Y155F/R338E/T343R/R403E/E410S (protein)
chain 1: not shown
chain 2: not shown

Target: Factor X, P00742
Sequence (P00742 whole entry, looked up): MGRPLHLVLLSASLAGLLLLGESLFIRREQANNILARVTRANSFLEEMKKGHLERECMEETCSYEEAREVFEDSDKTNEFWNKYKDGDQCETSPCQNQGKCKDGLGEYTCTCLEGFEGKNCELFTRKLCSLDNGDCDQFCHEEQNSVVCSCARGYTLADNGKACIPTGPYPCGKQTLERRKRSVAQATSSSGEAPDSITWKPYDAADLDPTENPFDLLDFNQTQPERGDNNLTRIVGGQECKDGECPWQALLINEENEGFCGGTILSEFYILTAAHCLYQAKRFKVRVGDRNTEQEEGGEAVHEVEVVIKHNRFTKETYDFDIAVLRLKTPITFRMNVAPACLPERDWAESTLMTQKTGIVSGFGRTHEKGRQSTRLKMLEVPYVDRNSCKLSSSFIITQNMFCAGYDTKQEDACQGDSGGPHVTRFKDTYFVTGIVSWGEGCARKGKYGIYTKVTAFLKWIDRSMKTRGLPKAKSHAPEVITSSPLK

| Protein | % of WT kcat/KM [%] | kcat/KM [M⁻¹ s⁻¹] | KM [µM] |
| --- | --- | --- | --- |
| B1 | 668 | 3.1e+08 | – |
| B2 | 439 | 2e+08 | – |
| B3 | 1269 | 5.9e+08 | – |
| B4 | 1215 | 5.6e+08 | – |
| B5 | 391 | 1.8e+08 | – |
| B6 | 676 | 3.1e+08 | – |
| B7 | 635 | 2.9e+08 | – |
| B8 | 201 | 9.3e+07 | – |
| B9 | – | 1.5e+08 | 0.0402 |
| B10 | – | 4.1e+08 | 0.0251 |
| B11 | – | 3e+08 | 0.0368 |
| B12 | – | 2e+08 | 0.0289 |
| B13 | – | 3.1e+08 | 0.0235 |
| B14 | – | 2.9e+08 | 0.0239 |

Reference: patent US11491212
